Article PMC2664085

What was measured:
[1] = substrate: Nc1ncnc2c1ncn2[C@@H]1O[C@H](COP(=O)(O)OP(=O)(O)OP(=O)(O)O)[C@@H](O)[C@H]1O; experiment: ATP dependence of 3H-DNPSG uptake into RLIP76-proteoliposomes; assay type: biochemical, Homo sapiens; conditions: co-substrate DNP-SG, 37°C, 5 min, random bi-bi fit
[2] = substrate: N[C@@H](CCC(=O)N[C@@H](CSc1ccc([N+](=O)[O-])cc1[N+](=O)[O-])C(=O)NCC(=O)O)C(=O)O; experiment: ATP-dependent uptake of 3H-DNPSG into RLIP76-proteoliposomes, filtration; assay type: biochemical, Homo sapiens; conditions: ATP co-substrate, 37°C, 5 min, random bi-bi fit, labelled compound

B1: recombinant RLIP76 (Homo sapiens) (protein)
chain: MTECFLPPTSSPSEHRRVEHGSGLTRTPSSEEISPTKFPGLYRTGEPSPPHDILHEPPDVVSDDEKDHGKKKGKFKKKEKRTEGYAAFQEDSSGDEAESPSKMKRSKGIHVFKKPSFSKKKEKDFKIKEKPKEEKHKEEKHKEEKHKEKKSKDLTAADVVKQWKEKKKKKKPIQEPEVPQIDVPNLKPIFGIPLADAVERTMMYDGIRLPAVFRECIDYVEKYGMKCEGIYRVSGIKSKVDELKAAYDREESTNLEDYEPNTVASLLKQYLRDLPENLLTKELMPRFEEACGRTTETEKVQEFQRLLKELPECNYLLISWLIVHMDHVIAKELETKMNIQNISIVLSPTVQISNRVLYVFFTHVQELFGNVVLKQVMKPLRWSNMATMPTLPETQAGIKEEIRRQEFLLNCLHRDLQGGIKDLSKEERLWEVQRILTALKRKLREAKRQECETKIAQEIASLSKEDVSKEEMNENEEVINILLAQENEILTEQEELLAMEQFLRRQIASEKEEIERLRAEIAEIQSRQQHGRSETEEYSSESESESEDEEELQIILEDLQRQNEELEIKNNHLNQAIHEEREAIIELRVQLRLLQMQRAKAEQQAQEDEEPEWRGGAVQPPRDGVLEPKAAKEQPKAGKEPAKPSPSRDRKETSI
[1]
  Km: 4400 ± 700 µM
[2]
  Km: 55 ± 4 µM
